In US20080248502A1 (EISAI R AND D MANAGEMENT, published 2008):

Legend:
[1] = target: T1, CAR-AP chimeric protein (extracellular region of mouse CAR linked with human secretory placental alkaline … (mouse; human, UniProt P97792 20-237; P05187 23-511); assay: SPR (BIAcore X): CAR-AP captured by anti-alkaline phosphatase antibody on CM5 chip, CARL-Fc supernatant at 20, 6 or 0.6 nM
T1 construct: Secreted from 293/EBNA-1 cells; also called CAR-AP chimeric proteins; immobilized CAR
Description: Then, a culture supernatant comprising CAR-AP chimeric protein or control AP chimeric protein diluted to 20 nM with HBS-EP buffer (BIAcore) was added to immobilize 500 RU of AP chimeric proteins onto the sensor chip. The protein-protein interactions were measured by adding culture supernatants comprising CARL-Fc chimeric proteins diluted to 20 nM, 6 nM, or 0.6 nM with HBS-EP buffer (BIAcore) at 20 μl/min for 210 seconds.

[2] = target: T1, CAR-AP chimeric protein (extracellular …); assay: adhesion of transfected B300 cells to immobilized CAR-AP
[3] = target: T1, CAR-AP chimeric protein (extracellular …); assay: adhesion of CARL-expressing B300 cells to immobilized AP chimeric proteins
[4] = target: T2, CARL-AP chimeric protein (extracellular region of mouse CARL linked with human secretory placental alkaline … (mouse; human, UniProt P05187 23-511); assay: adhesion of B300/CARL cells to immobilized AP chimeric proteins (method of Example 4, proteins applied at 10 nM)
T2 construct: also called CARL-AP proteins; chimeric protein of ENSMUSG0000048534 with AP
Description: Cell adhesion experiments were carried out using AP chimeric proteins to identify molecules functioning as adhesion molecules that adhere to lymphocytes. First, 50 μl of 10 μg/ml anti-alkaline phosphatase antibody (Seradyn MIA1802) was added to 96 well ELISA plates (Nunc), and allowed to stand at 37° C. for 30 minutes to immobilize the antibody. After washing the plates with PBS, the non-specifically binding sites were blocked with BlockAce (Dainippon Pharmaceutical Co.). AP chimeric proteins were diluted to a final concentration of 10 nM, added to the wells, and allowed to stand at room temperature for 30 minutes to immobilize the proteins. Activated lymphocytes were suspended in cell adhesion buffer (RPMI 1640, 0.5% BSA, and 20 mM HEPES (pH 7.4)), fluorescently labeled with Calcein-AM (Dojin), then added to wells at 1×10⁵ cells/well, and incubated at 37° C. for one hour. The non-adherent cells were washed away. A cell lysis solution (10 mM TrisHCl (pH 8.0), 1% TritonX-100) was added, then adherent cells were quantified using Wallac ARVO SX 1420 MULTILABEL COUNTER (Perkin Elmer) and measuring at an excitation wavelength of 485 nm and detection wavelength of 535 nm. The degree of cell adhesion was represented as a percentage ratio of adherent cells to added cells. […]

[5] = target: T3, human CARL-AP chimeric protein (extracellular region of human CARL linked with human secretory placental … (human, UniProt P05187 23-511)); assay: adhesion of human CAR-expressing B300 cells to immobilized human CARL-AP
T3 construct: also called human CARL-AP chimeric proteins

[6] = target: T4, human CAR-AP chimeric protein (extracellular region of human CAR linked with human secretory placental … (human, UniProt P78310 20-237; P05187 23-511); assay: cell surface binding of human CAR-AP to transfected B300 cells
T4 construct: also called human CAR-AP chimeric proteins

T1 sequence (P97792 other isoform, or with tags, fused parts or gaps mutant): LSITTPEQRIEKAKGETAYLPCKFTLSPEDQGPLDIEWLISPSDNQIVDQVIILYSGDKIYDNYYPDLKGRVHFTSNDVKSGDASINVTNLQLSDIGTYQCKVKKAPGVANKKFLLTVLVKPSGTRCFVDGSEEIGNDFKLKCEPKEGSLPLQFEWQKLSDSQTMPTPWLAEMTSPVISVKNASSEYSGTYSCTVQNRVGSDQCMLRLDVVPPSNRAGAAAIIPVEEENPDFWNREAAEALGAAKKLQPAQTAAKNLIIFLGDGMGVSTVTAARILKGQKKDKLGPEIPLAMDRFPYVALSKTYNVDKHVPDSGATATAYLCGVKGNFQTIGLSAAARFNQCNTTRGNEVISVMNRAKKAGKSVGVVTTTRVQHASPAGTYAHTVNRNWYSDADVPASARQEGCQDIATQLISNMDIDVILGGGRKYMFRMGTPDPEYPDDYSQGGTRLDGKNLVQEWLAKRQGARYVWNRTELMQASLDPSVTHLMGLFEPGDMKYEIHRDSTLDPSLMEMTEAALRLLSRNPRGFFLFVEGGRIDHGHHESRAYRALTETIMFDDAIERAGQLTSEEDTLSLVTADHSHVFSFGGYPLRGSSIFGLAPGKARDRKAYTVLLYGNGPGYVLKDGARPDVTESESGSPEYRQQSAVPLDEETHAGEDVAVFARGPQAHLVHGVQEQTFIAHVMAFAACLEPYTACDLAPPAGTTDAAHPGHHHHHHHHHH

B1: CARL-Fc chimeric protein (mouse CARL) (Fc fusion)
chain: QGLPGLTVSSPQLRVHVGESVLMGCVVQRTEEKHVDRVDWLFSKDKDDASEYVLFYYSNLSVPTGRFQNRSHLVGDTFHNDGSLLLQDVQKADEGIYTCEIRLKNESMVMKKPVELWVLPEEPKDLRVRVGDTTQMRCSIQSTEEKRVTKVNWMFSSGSHTEEETVLSYDSNMRSGKFQSLGRFRNRVDLTGDISRNDGSIKLQTVKESDRGIYTCSIYVGKLESRKTIVLHVVQDEFQRTISPTPPTDKGQQGILNGNQL
notes: The making of CARL-Fc is described nowhere; used as culture supernatant; only its extracellular region is in the construct; also called CARL-Fc chimeric proteins; not shown: Fc part: species, isotype and any linker are not described
Kd [1]: 4.8 nM

B2: domain 1-lacking CARL (positions 21 to 29 and 140 to 379) with FLAG tag, expressed on B300 cells (ligand)
chain: QGLPGLTVSPEEPKDLRVRVGDTTQMRCSIQSTEEKRVTKVNWMFSSGSHTEEETVLSYDSNMRSGKFQSLGRFRNRVDLTGDISRNDGSIKLQTVKESDRGIYTCSIYVGKLESRKTIVLHVVQDEFQRTISPTPPTDKGQQGILNGNQLVIIVGIVCATFLLLPVLILIVKKAKWNKSSVSSMASVKSLENKEKINPEKHIYSSITTWETTERGISGESEGTYMTMNPVWPSSPKASSLVRSSVRSK
notes: On cells; also called B300 cells expressing CARL lacking domain 1; not shown: FLAG tag from vector pMX ssFLAG MCS2.2 IRES Puro
binding result [2]: no binding

B3: mouse CARL (CAR ligand; ENSMUSG0000048534), full length, on cells (ligand)
chain: QGLPGLTVSSPQLRVHVGESVLMGCVVQRTEEKHVDRVDWLFSKDKDDASEYVLFYYSNLSVPTGRFQNRSHLVGDTFHNDGSLLLQDVQKADEGIYTCEIRLKNESMVMKKPVELWVLPEEPKDLRVRVGDTTQMRCSIQSTEEKRVTKVNWMFSSGSHTEEETVLSYDSNMRSGKFQSLGRFRNRVDLTGDISRNDGSIKLQTVKESDRGIYTCSIYVGKLESRKTIVLHVVQDEFQRTISPTPPTDKGQQGILNGNQLVIIVGIVCATFLLLPVLILIVKKAKWNKSSVSSMASVKSLENKEKINPEKHIYSSITTWETTERGISGESEGTYMTMNPVWPSSPKASSLVRSSVRSK
notes: also called CARL-expressing B300 cells; similar to AMICA (BC050133)
binding result [3]: binds | binding result [4]: no binding

B4: full-length CARL (positions 21 to 379) with vector signal sequence and FLAG tag, expressed on B300 cells (ligand)
chain: QGLPGLTVSSPQLRVHVGESVLMGCVVQRTEEKHVDRVDWLFSKDKDDASEYVLFYYSNLSVPTGRFQNRSHLVGDTFHNDGSLLLQDVQKADEGIYTCEIRLKNESMVMKKPVELWVLPEEPKDLRVRVGDTTQMRCSIQSTEEKRVTKVNWMFSSGSHTEEETVLSYDSNMRSGKFQSLGRFRNRVDLTGDISRNDGSIKLQTVKESDRGIYTCSIYVGKLESRKTIVLHVVQDEFQRTISPTPPTDKGQQGILNGNQLVIIVGIVCATFLLLPVLILIVKKAKWNKSSVSSMASVKSLENKEKINPEKHIYSSITTWETTERGISGESEGTYMTMNPVWPSSPKASSLVRSSVRSK
notes: also called B300 cells expressing full-length CARL; not shown: FLAG tag from vector pMX ssFLAG MCS2.2 IRES Puro
binding result [2]: binds

B5: domain 2-lacking CARL (positions 21 to 139 and 255 to 379) with FLAG tag, expressed on B300 cells (ligand)
chain: QGLPGLTVSSPQLRVHVGESVLMGCVVQRTEEKHVDRVDWLFSKDKDDASEYVLFYYSNLSVPTGRFQNRSHLVGDTFHNDGSLLLQDVQKADEGIYTCEIRLKNESMVMKKPVELWVLQDEFQRTISPTPPTDKGQQGILNGNQLVIIVGIVCATFLLLPVLILIVKKAKWNKSSVSSMASVKSLENKEKINPEKHIYSSITTWETTERGISGESEGTYMTMNPVWPSSPKASSLVRSSVRSK
notes: On cells; also called B300 cells expressing CARL lacking domain 2; not shown: FLAG tag from vector pMX ssFLAG MCS2.2 IRES Puro
binding result [2]: binds

B6: human CAR, full length, expressed on B300 cells (receptor, UniProt P78310 20-365, looked up)
chain: LSITTPEEMIEKAKGETAYLPCKFTLSPEDQGPLDIEWLISPADNQKVDQVIILYSGDKIYDDYYPDLKGRVHFTSNDLKSGDASINVTNLQLSDIGTYQCKVKKAPGVANKKIHLVVLVKPSGARCYVDGSEEIGSDFKIKCEPKEGSLPLQYEWQKLSDSQKMPTSWLAEMTSSVISVKNASSEYSGTYSCTVRNRVGSDQCLLRLNVVPPSNKAGLIAGAIIGTLLALALIGLIIFCCRKKRREEKYEKEVHHDIREDVPPPKSRTSTARSYIGSNHSSLGSMSPSNMEGYSKTQYNQVPSEDFERTPQSPTLPPAKVAAPNLSRMGAIPVMIPAQSKDGSIV
notes: whole, on cells; also called human CAR-expressing B300 cells
binding result [5]: binds

B7: human CARL (human AMICA), full length, expressed on B300 cells (ligand)
chain: LNDLNVSPPELTVHVGDSALMGCVFQSTEDKCIFKIDWTLSPGEHAKDEYVLYYYSNLSVPIGRFQNRVHLMGDILCNDGSLLLQDVQEADQGTYICEIRLKGESQVFKKAVVLHVLPEEPKELMVHVGGLIQMGCVFQSTEVKHVTKVEWIFSGRRAKEEIVFRYYHKLRMSVEYSQSWGHFQNRVNLVGDIFRNDGSIMLQGVRESDGGNYTCSIHLGNLVFKKTIVLHVSPEEPRTLVTPAALRPLVLGGNQLVIIVGIVCATILLLPVLILIVKKTCGNKSSVNSTVLVKNTKKTNPEIKEKPCHFERCEGEKHIYSPIIVREVIEEEEPSEKSEATYMTMHPVWPSLRSDRNNSLEKKSGGGMPKTQQAF
notes: also called human CARL-expressing B300 cells; B300 cells expressing human CARL
binding result [6]: binds
